Key:
[1] = biological target: 26S proteasome reconstituted with Cy3-labeled base (Rpt1-I191AzF-Cy3) (S. cerevisiae) (UniProt P33299); experiment: FRET or BRET
[2] = biological target: reconstituted 26S proteasome (wild-type base, lid, Rpn10 and 20S core) (S. cerevisiae) (UniProt P33299)

Substance | τapp of tail insertion, fast phase [1] [s] | kapp (1/τapp) of tail insertion, fast phase [1] [s⁻¹] | KM of multiple-turnover processing (Michaelis-Menten, anisotropy) [2] [µM]
ubiquitinated titin-I27^V15P-23-K-25, Cy5-labeled (from UniProt P0CG63 1-76) | 1.73 |  | 
ubiquitinated titin-I27^V15P-23-K-35 modified with Cy5 on its unstructured tail (from UniProt P0CG63 1-76) | 1.61 | 0.62 | 
ubiquitinated titin-I27^V15P-23-K-11, Cy5-labeled (from UniProt P0CG63 1-76) |  | 1.4 | 
ubiquitinated titin-I27^V15P-23-K-25 (serine rich), Cy5-labeled (from UniProt P0CG63 1-76) | 7.15 |  | 
ubiquitinated titin-I27^V15P-43-K-11 (from UniProt P0CG63 1-76) |  |  | 2

Reference: PMC6519451
